Measured values as given in the supplement of paper PMC9112550, “Optimization of the antimicrobial peptide Bac7 by deep mutational scanning” (BMC Biology, 2022).

System: Escherichia coli TOP10
Experiment: shrunken log2 fold change of peptide-encoding DNA abundance (4.5 h post-induction vs induction); higher = less antimicrobial activity (less host growth inhibition)
Conditions: time post-induction: 4.5 h; library: site-saturation at positions 5, 18, 19, 20
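Further: peptides expressed intracellularly from a pBAD plasmid library in pooled LB shake-flask culture, induced with 0.3% L-arabinose, DNA abundance read by NGS, three biological replicates, DESeq2 with apeglm shrinkage.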

Sequence	shrunken log2 fold change
RRIRSRPPRLPRPRPRPAAWPRP	0.226
RRIRPRPPRLPRPRPRPMAFPRP	0.0207
RRIRKRPPRLPRPRPRPRDQPRP	0.000671
RRIRCRPPRLPRPRPRPDARPRP	-0.0562
RRIRIRPPRLPRPRPRPNFEPRP	-0.218
RRIRDRPPRLPRPRPRPPWMPRP	0.261
RRIRFRPPRLPRPRPRPQCSPRP	0.0505
RRIRTRPPRLPRPRPRPSPHPRP	-0.159
RRIRQRPPRLPRPRPRPAMSPRP	0.322
RRIRKRPPRLPRPRPRPEHTPRP	-0.0305
RRIRCRPPRLPRPRPRPICQPRP	-0.0542
RRIRSRPPRLPRPRPRPQWLPRP	-0.32
RRIRWRPPRLPRPRPRPAQNPRP	0.437
RRIRMRPPRLPRPRPRPNTTPRP	0.191
RRIRFRPPRLPRPRPRPNSKPRP	-0.464
RRIRRRPPRLPRPRPRPYVAPRP	-0.361
RRIRERPPRLPRPRPRPIGDPRP	-0.942
RRIRRRPPRLPRPRPRPVTVPRP	0.124
RRIRKRPPRLPRPRPRPICNPRP	0.102
RRIRIRPPRLPRPRPRPSGCPRP	-0.137
RRIRIRPPRLPRPRPRPHCLPRP	-0.104
RRIRKRPPRLPRPRPRPDDQPRP	-0.018
RRIRCRPPRLPRPRPRPKNSPRP	-0.159
RRIRGRPPRLPRPRPRPERWPRP	1.19
RRIRSRPPRLPRPRPRPGNFPRP	0.00825

Sequence	shrunken log2 fold change
RRIRFRPPRLPRPRPRPGIWPRP	0.125
RRIRWRPPRLPRPRPRPNPSPRP	0.219
RRIRQRPPRLPRPRPRPVLEPRP	0.198
RRIRWRPPRLPRPRPRPHADPRP	0.708
RRIRSRPPRLPRPRPRPPMKPRP	0.194
RRIRNRPPRLPRPRPRPLMYPRP	-0.158
RRIRGRPPRLPRPRPRPVLSPRP	0.238
RRIRGRPPRLPRPRPRPSQCPRP	-0.165
RRIRLRPPRLPRPRPRPRMQPRP	-0.0604
RRIRPRPPRLPRPRPRPCGHPRP	-0.0439
RRIRMRPPRLPRPRPRPCEGPRP	-0.00822
RRIRDRPPRLPRPRPRPMCDPRP	0.0645
RRIRGRPPRLPRPRPRPDCMPRP	0.909
RRIRQRPPRLPRPRPRPDPIPRP	-0.0263
RRIRSRPPRLPRPRPRPGNTPRP	-0.472
RRIRARPPRLPRPRPRPYTFPRP	-0.444
RRIRIRPPRLPRPRPRPSSQPRP	-0.674
RRIRSRPPRLPRPRPRPKVNPRP	-0.333
RRIRKRPPRLPRPRPRPEPDPRP	0.877
RRIRTRPPRLPRPRPRPLEPPRP	0.021
RRIRQRPPRLPRPRPRPNVCPRP	-0.575
RRIRFRPPRLPRPRPRPHEAPRP	-0.377
RRIRNRPPRLPRPRPRPRDEPRP	-0.0923
RRIRRRPPRLPRPRPRPYKDPRP	-0.249
RRIRWRPPRLPRPRPRPHLWPRP	0.191

Sequence	shrunken log2 fold change
RRIRWRPPRLPRPRPRPHKDPRP	-0.115
RRIRDRPPRLPRPRPRPESTPRP	-0.0182
RRIRIRPPRLPRPRPRPDEKPRP	-0.0762
RRIRKRPPRLPRPRPRPSHGPRP	-0.216
RRIRPRPPRLPRPRPRPVQWPRP	0.151
RRIRRRPPRLPRPRPRPDRRPRP	0.108
RRIRIRPPRLPRPRPRPPFHPRP	-0.513
RRIRIRPPRLPRPRPRPYYYPRP	-1.08
RRIRLRPPRLPRPRPRPNSMPRP	-0.0473
RRIRQRPPRLPRPRPRPKKSPRP	-0.197
RRIRRRPPRLPRPRPRPHPYPRP	-0.069
RRIRKRPPRLPRPRPRPLPYPRP	-0.0627
RRIRPRPPRLPRPRPRPLSFPRP	-0.132
RRIRQRPPRLPRPRPRPSMKPRP	-0.166
RRIRGRPPRLPRPRPRPEDKPRP	1.23
RRIRYRPPRLPRPRPRPWCWPRP	-0.153
RRIRRRPPRLPRPRPRPQWFPRP	-0.076
RRIRGRPPRLPRPRPRPSQMPRP	0.0878
RRIRWRPPRLPRPRPRPGLGPRP	0.83
RRIRGRPPRLPRPRPRPECHPRP	1.62
RRIRMRPPRLPRPRPRPCFCPRP	0.0295
RRIRRRPPRLPRPRPRPYWPPRP	-0.377
RRIRYRPPRLPRPRPRPPQYPRP	-0.795
RRIRHRPPRLPRPRPRPYFVPRP	-0.84
RRIRGRPPRLPRPRPRPSMVPRP	0.512

Sequence	shrunken log2 fold change
RRIRERPPRLPRPRPRPVWKPRP	0.00515
RRIRNRPPRLPRPRPRPHHSPRP	0.0657
RRIRIRPPRLPRPRPRPHLQPRP	-0.343
RRIRERPPRLPRPRPRPFHIPRP	-0.133
RRIRKRPPRLPRPRPRPYACPRP	-0.0471
RRIRKRPPRLPRPRPRPFVLPRP	0.389
RRIRNRPPRLPRPRPRPSLSPRP	-0.205
RRIRWRPPRLPRPRPRPWKAPRP	-0.00884
RRIRHRPPRLPRPRPRPRIYPRP	-0.584
RRIRNRPPRLPRPRPRPPMGPRP	-0.0346
RRIRPRPPRLPRPRPRPIPQPRP	-0.321
RRIRERPPRLPRPRPRPPHRPRP	0.0387
RRIRPRPPRLPRPRPRPKEVPRP	-0.0501
RRIRHRPPRLPRPRPRPGAIPRP	-0.15
RRIRSRPPRLPRPRPRPHQIPRP	0.0975
RRIRLRPPRLPRPRPRPWNHPRP	-0.347
RRIRCRPPRLPRPRPRPGSTPRP	-0.474
RRIRYRPPRLPRPRPRPQHTPRP	-0.671
RRIRIRPPRLPRPRPRPHSMPRP	-0.382
RRIRYRPPRLPRPRPRPPMFPRP	-0.806
RRIRNRPPRLPRPRPRPSWWPRP	0.28
RRIRDRPPRLPRPRPRPKNGPRP	0.74
RRIRARPPRLPRPRPRPVKLPRP	-0.59
RRIRWRPPRLPRPRPRPRTEPRP	0.225
RRIRVRPPRLPRPRPRPVNPPRP	-0.464

Sequence	shrunken log2 fold change
RRIRNRPPRLPRPRPRPMHNPRP	-0.286
RRIRVRPPRLPRPRPRPFMWPRP	-0.327
RRIRARPPRLPRPRPRPHRSPRP	-0.0655
RRIRNRPPRLPRPRPRPFKHPRP	-0.39
RRIRDRPPRLPRPRPRPTWTPRP	-0.043
RRIRMRPPRLPRPRPRPGSVPRP	0.696
RRIRWRPPRLPRPRPRPTGPPRP	0.217
RRIRGRPPRLPRPRPRPCYYPRP	-0.00676
RRIRWRPPRLPRPRPRPCQYPRP	0.0863
RRIRRRPPRLPRPRPRPMFEPRP	0.266
RRIRPRPPRLPRPRPRPMRPPRP	1.04
RRIRMRPPRLPRPRPRPEFAPRP	0.679
RRIRCRPPRLPRPRPRPCTCPRP	-0.583
RRIRTRPPRLPRPRPRPHTDPRP	-0.401
RRIRNRPPRLPRPRPRPTHEPRP	0.0695
RRIRPRPPRLPRPRPRPIYMPRP	-0.306
RRIRSRPPRLPRPRPRPSQPPRP	-0.14
RRIRIRPPRLPRPRPRPNTQPRP	-0.295
RRIRQRPPRLPRPRPRPQEKPRP	0.0313
RRIRLRPPRLPRPRPRPIKCPRP	-0.152
RRIRIRPPRLPRPRPRPKKSPRP	-0.202
RRIRKRPPRLPRPRPRPCNPPRP	-0.00652
RRIRHRPPRLPRPRPRPIHPPRP	-0.154
RRIRIRPPRLPRPRPRPDYIPRP	-0.183
RRIRFRPPRLPRPRPRPFVKPRP	-0.457
